Results on 38 variants are retold here after the RNAGym collection of RNA variant scans (doi:10.7554/elife.80360).

B1: Hairpin Ribozyme (parent)
chain: GUCCUCUUUCACGUGCGCGUGAAAGAGAGAAGUGAACCAGAGAAACACACGUUGUGGUAUAUUACCUGGUA

In the series the parent is B1. Kind of series: self-cleavage, relative activity (ratio to wild type); higher = more cleavage; co-transcriptional.
With GUCCUCUUUCACGUGCGCGUGAAAGAAAGACGUGAACCAGAGAAACACACGUUGUGGUAUAUUACCUGGUA [G27A A31C], the self-cleavage amounted to 0.193. On to GUCCUCUUUCACGUGCGCGUGAAAGUGAGAAGUGAACCUGAGAAACACACGUUGUGGUAUAUUACCUGGUA [A26U A39U], for which the self-cleavage came out at 0.266. For GUCCUCUUUCACGUGCGCGUGAAAGUGAGAAGUGAACCAGAAAAACACACGUUGUGGUAUAUUACCUGGUA [A26U G42A], the self-cleavage amounted to 0.153. Then GUCCUCUUUCACGUGCGCGUGAAAGAAAGAAGUGAACCAGAGAAACACACGUUGUGGUAUAUUACCUGGUA [G27A], with 0.454. Consider GUCCUCUUUCACGUGCGCGUGAAAGAAAGAAGUGAACCAGAGAAAUACACGUUGUGGUAUAUUACCUGGUA [G27A C46U], for which the self-cleavage came to 0.127. Regarding GUCCUCUUUCACGUGCGCGUGAAAGAAAGAAGUGAACCAGAGAAACACACGUUGAGGUAUAUUACCUGGUA [G27A U55A], the self-cleavage is 0.169. Consider GUCCUCUUUCACGUGCGCGUGAAAGUGAGAAGUGAACCAGAGAAACACACGUUGUGGUAUAUUACCUGGCA [A26U U70C], for which the self-cleavage is 0.721. Next, GUCCUCUUUCACGUGCGCGUGAAAGUGAGAAGUGAACAAGAGAAACACACGUUGUGGUAUAUUACCUGGUA [A26U C38A]: 0.188. Regarding GUCCUCUUUCACGUGCGCGUGAAAGAAAGAAGUGAACCAAAGAAACACACGUUGUGGUAUAUUACCUGGUA [G27A G40A], the self-cleavage amounted to 0.143. In the case of GUCCUCUUUCACGUGCGCGUGAAAGUGAGAAGUGAACCAGAGUAACACACGUUGUGGUAUAUUACCUGGUA [A26U A43U], the self-cleavage turned out to be 0.139. Next, GUCCUCUUUCACGUGCGCGUGAAAGUGAGAAGUGAACCAGAGGAACACACGUUGUGGUAUAUUACCUGGUA [A26U A43G]: 0.121; GUCCUCUUUCACGUGCGCGUGAAAGUGAGAAGUAAACCAGAGAAACACACGUUGUGGUAUAUUACCUGGUA [A26U G34A]: 0.954; GUCCUCUUUCACGUGCGCGUGAAAGUGAGAAGUCAACCAGAGAAACACACGUUGUGGUAUAUUACCUGGUA [A26U G34C]: 1.51. For the variant GUCCUCUUUCACGUGCGCGUGAAAGUGAGAAGUGGACCAGAGAAACACACGUUGUGGUAUAUUACCUGGUA [A26U A35G], the self-cleavage was 0.786. Consider GUCCUCUUUCACGUGCGCGUGAAAGUGAGAAGUGAACCAGAGAAACACACGUUGUCGUAUAUUACCUGGUA [A26U G56C], for which the self-cleavage was found to be 0.135. Turning to GUCCUCUUUCACGUGCGCGUGAAAGAAAGAAGUGAACCAGAGAAACACACGUUGUGGUAUGUUACCUGGUA [G27A A61G], the self-cleavage was 0.114. Regarding GUCCUCUUUCACGUGCGCGUGAAAGUGAGAAGUGAACCAGAGAAACACACGUUGUGGUAUAUUACCUUGUA [A26U G68U], the self-cleavage worked out at 0.207.

On to GUCCUCUUUCACGUGCGCGUGAAAGUGAGAAGUGAACCAGAGAAACACACGUUGUGGUAUAUUACCUCGUA [A26U G68C], for which the self-cleavage is 0.103. As to GUCCUCUUUCACGUGCGCGUGAAAGAAAGAAGUGAACCAGAGAAACACACGUUGUGGUAUAUUACGUGGUA [G27A C66G], the self-cleavage came out at 0.133. Take GUCCUCUUUCACGUGCGCGUGAAAGUGAGAAGUGAAUCAGAGAAACACACGUUGUGGUAUAUUACCUGGUA [A26U C37U]: the self-cleavage stood at 0.466. As for GUCCUCUUUCACGUGCGCGUGAAAGUGAUAAGUGAACCAGAGAAACACACGUUGUGGUAUAUUACCUGGUA [A26U G29U], the self-cleavage came to 0.151.

For the variant GUCCUCUUUCACGUGCGCGUGAAAGUGACAAGUGAACCAGAGAAACACACGUUGUGGUAUAUUACCUGGUA [A26U G29C], the self-cleavage is 0.135. With GUCCUCUUUCACGUGCGCGUGAAAGUGAGAAGUGAACCAGAGAAACGCACGUUGUGGUAUAUUACCUGGUA [A26U A47G], the self-cleavage stood at 0.142. As for GUCCUCUUUCACGUGCGCGUGAAAGAAAGAAGUGAACCAGAGAAACACACGUUGUCGUAUAUUACCUGGUA [G27A G56C], the self-cleavage amounted to 0.101. In the case of GUCCUCUUUCACGUGCGCGUGAAAGAAAGAAGUGAACCAGAGAAACACACGUUGUUGUAUAUUACCUGGUA [G27A G56U], the self-cleavage worked out at 0.156. For the variant GUCCUCUUUCACGUGCGCGUGAAAGAAAGAAGUGAACCAGAGAAACACACGUUAUGGUAUAUUACCUGGUA [G27A G54A], the self-cleavage was determined as 0.221. Next, GUCCUCUUUCACGUGCGCGUGAAAGAAAGAAGUGAACCAGAGAAACACACGUUUUGGUAUAUUACCUGGUA [G27A G54U]: 0.213; GUCCUCUUUCACGUGCGCGUGAAAGAAAGAAGUGAACCAGAGAAACACACGUUGUGGUAUAUUGCCUGGUA [G27A A64G]: 0.303; GUCCUCUUUCACGUGCGCGUGAAAGUGAGAAGUGAACCAGAGAAACACACGUUGUGGUCUAUUACCUGGUA [A26U A59C]: 0.137.

For the variant GUCCUCUUUCACGUGCGCGUGAAAGAAAGAAGUGAACCAGAGAAACGCACGUUGUGGUAUAUUACCUGGUA [G27A A47G], the self-cleavage was found to be 0.129.

GUCCUCUUUCACGUGCGCGUGAAAGUGAGAAGUGAACCAGAGAAACACACGUUGUGGUAUAUUACCUGUUA [A26U G69U]: the self-cleavage turned out to be 0.225.

Turning to GUCCUCUUUCACGUGCGCGUGAAAGUGAGAAGUGAACCAGAGAAACACACGUUGUGGUAUAUUACGUGGUA [A26U C66G], the self-cleavage stood at 0.16.

For the variant GUCCUCUUUCACGUGCGCGUGAAAGAAAGAAGUGAACCAGAUAAACACACGUUGUGGUAUAUUACCUGGUA [G27A G42U], the self-cleavage stood at 0.147. Regarding GUCCUCUUUCACGUGCGCGUGAAAGAAAGAAGUGAACCAGAGAAACACAGGUUGUGGUAUAUUACCUGGUA [G27A C50G], the self-cleavage stood at 0.131. Next, GUCCUCUUUCACGUGCGCGUGAAAGUAAGAAGUGAACCAGAGAAACACACGUUGUGGUAUAUUACCUGGUA [A26U G27A]: 0.228; GUCCUCUUUCACGUGCGCGUGAAAGUGAGAAGUGAACCAGAGAAACACACGAUGUGGUAUAUUACCUGGUA [A26U U52A]: 0.788; GUCCUCUUUCACGUGCGCGUGAAAGAAAGAAGUGCACCAGAGAAACACACGUUGUGGUAUAUUACCUGGUA [G27A A35C]: 0.485.

Regarding GUCCUCUUUCACGUGCGCGUGAAAGAAAGAAGUGAACCAGAGAAACACACGUUGUGGUAUAUUAGCUGGUA [G27A C65G], the self-cleavage was 0.161.
